B1: TRIM29 (parent)
chain: FAEKGELRKSIFSESRKPTVSIME
B2: KLHDC10 (parent)
chain: FGGTGIPFGESNGNGVHVCNVKYK

Variants of: B1
Assay: protein stability index of a GFP-peptide fusion (GPS, HEK-293T) (PSI 1-6); higher = more stable
Conditions: c terminus: a fixed tail appended
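Further: lentivirally expressed fusions sorted by FACS into six bins by GFP to DsRed ratio, PSI derived from sequencing read proportions per bin multiplied by bin number.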

Protein stability index: each site, then its substitutions
A2: G 2.06 | Q 3.44 | I 1.89 | E 3.35 | L 2.38 | H 2.07 | R 3.42 | N 2.91 | P 2.59 | S 2.53 | D 3.76 | F 2.52 | M 3.21 | K 3.44 | C 1.66
F1: Q 3.97 | R 3.66 | C 2.68 | M 3.73 | I 3.63 | L 3.14 | Y 1.45 | S 3.58 | K 4.27 | V 3.94 | P 3.9 | D 4.75 | T 3.95 | W 2.6 | G 3.89 | N 4.34 | A 4.35 | H 4.29 | E 4.13

Variants of: B2
Assay: as above
Conditions: c terminus: a fixed tail appended

Protein stability index, by site and new letter:
Y23: R 2.17 | I 2.38 | N 2.49 | Q 2.28 | C 2.54 | H 2.43 | A 2.76 | G 2.04 | D 3.3 | T 2.14 | L 2.07 | S 2.99 | P 2.41 | K 2.01 | F 2.03 | M 2.1 | E 2.47 | V 2.23 | W 2.62
V21: D 2.14 | N 2.54 | F 1.82 | E 2.31 | P 1.92 | K 1.98 | L 1.58 | T 2.17 | Q 2.14 | R 1.72 | M 1.95 | I 2.78 | C 2.04 | W 1.86 | H 1.7 | Y 2.5 | S 2.38 | G 1.78 | A 1.74
N14: M 1.99 | L 1.81 | Q 2.03 | H 2.12 | R 2.04 | D 1.87 | C 1.87 | V 2.67 | G 1.54 | A 1.82 | F 1.62 | I 1.2 | P 1.91 | Y 1.62 | S 1.9 | E 2.47 | K 1.81 | T 1.98 | W 3.08
G13: Y 2.09 | H 1.77 | W 2.03 | I 1.38 | C 1.59 | K 2.06 | A 2.02 | V 2.17 | L 2.05 | Q 2.38 | T 2.58 | S 1.92 | F 1.9 | N 1.7 | D 2.18 | P 1.91 | E 2.28 | M 2.73 | R 2.36
V16: P 2.43 | I 2.46 | Q 2.04 | E 2.97 | N 2.06 | S 2.27 | R 2.97 | K 2.15 | Y 1.89 | M 1.89 | H 2.1 | T 1.98 | G 2.47 | W 2.49 | A 2.6 | L 1.39 | D 2.42 | C 1.19 | F 2.23
C19: Q 2.29 | R 2.35 | S 2.01 | I 1.75 | G 2.06 | F 2.62 | M 2.15 | P 2.21 | D 2.62 | V 2.07 | T 2.01 | A 2.31 | E 2.76 | Y 2.06 | L 1.97 | K 2.08 | N 2.38 | H 1.46 | W 1.71
G15: F 1.49 | T 1.92 | Y 1.42 | I 1.77 | Q 1.78 | K 2.1 | R 1.82 | W 1.62 | L 1.73 | D 2.3 | P 2.06 | E 2.34 | C 1.58 | N 1.52 | S 2.14 | H 1.9 | V 1.9 | A 1.59 | M 1.52
H17: E 2.48 | K 2.01 | G 1.63 | M 1.37 | W 1.64 | I 1.91 | T 2.22 | V 2.32 | A 1.92 | N 2.03 | Y 1.52 | F 2.34 | Q 2.45 | D 2.54 | S 3.15 | C 1.75 | L 2.08 | P 2.68 | R 2.13
K24: W 2.61 | H 1.57 | Q 2 | T 3.32 | M 2.42 | G 1.6 | E 1.99 | N 1.82 | A 1.23 | D 2.4 | Y 1.88 | F 1 | C 1.75 | P 2.11 | L 2.06 | R 1.63 | I 1.42 | V 1.66 | S 1.66
N20: S 1.65 | L 1.36 | A 2.35 | R 2.15 | T 1.75 | I 1.82 | V 1.55 | M 1.38 | P 1.52 | H 1.48 | G 1.66 | Y 2.23 | C 1.11 | D 1.98 | K 2.44 | F 2.06 | E 1.92 | W 2.83 | Q 1.87
G9: N 2.29 | Q 1.88 | E 3.16 | R 1.76 | T 1.66 | L 1.39 | V 2.57 | K 1.79 | I 2.16 | Y 2.15 | P 2.44 | W 2.89 | H 2.72 | S 1.74 | M 1.18
V18: N 2.31 | H 2.06 | S 2.45 | D 3.08 | R 2.03 | G 2.24 | K 1.86 | Y 2.19 | F 2.15 | M 2.24 | A 2.1 | W 1.75 | Q 2.04 | I 1.74 | P 1.97 | L 1.71 | T 2.27 | E 2.75 | C 2.06
K22: W 2.1 | D 2.35 | F 1.63 | V 2.24 | L 1.29 | S 1.29 | M 1.9 | H 2.07 | Y 1.95 | R 2.34 | A 2.53 | Q 2.89 | P 1.91 | C 1.24 | N 1.8 | E 2.4 | G 1.98 | I 1.83 | T 1.98
S11: H 2.2 | P 2.3 | V 2.35 | L 1.62 | M 2.25 | R 1.97 | E 2.82 | Y 1.65 | G 1.54 | A 1.97 | C 1.82 | F 1.72 | Q 2.06 | D 2.52 | I 2.73 | K 1.87 | T 1.96 | W 2.4 | N 1.91
E10: S 3.04 | C 1.51 | I 2.39 | F 1.7 | N 3.06 | V 2.49 | A 2.94 | W 2.59 | R 2.46 | M 2.26 | T 1.62 | Y 1.45 | D 1.73 | K 1.46 | Q 2.94 | H 1.99 | P 1.95 | G 1.68 | L 2.43
N12: V 1.6 | D 2.33 | R 1.51 | F 1.41 | M 1.9 | P 1.73 | H 2.22 | Y 2.59 | I 1.58 | K 1.82 | Q 2.06 | W 1.74 | A 1.85 | C 1.63 | S 1.74 | T 1.97 | L 1.87 | G 1.62 | E 2.11

Reference: the supplement of paper PMC10567573
